Where two headings read alike, the source gives them in different places.

The test system of experiment [1] is DO 11.10 cells. Put plainly: Ara-C dose-response for cell death of DO 11.10 cells. The experiment is classed as cell-based. As to conditions: dose-response curve.
The subject of experiment [2] is MANF expression. The note with it: mouse splenocytes treated with cyclophosphamide; cited from earlier work.
Experiment [3] relates to DO 11.10 cells. Put plainly: Dexamethasone dose-response for cell death of DO 11.10 cells. The note with it: dose-response curve. Type of experiment: cell-based. As for the experimental part:
FIGS. 10A-B provides an analysis of MANF's ability to protect DO 11.10 cells from cell death caused by the glucocorticoid dexamethasone. […] DO 11.10 cells were pretreated for 24 hrs with MANF (dose shown; B) and then challenged with 100 nM dexamethasone to induce cell death. *p=0.003; **p=0.019.
(§1) Because MANF is expressed in T cells and is induced when they become activated, experiments were performed to determine whether MANF confers protection to these cells. A dose-response curve was generated with the glucocorticoid dexamethasone to determine the dose that results in ˜50% cell death (24 nM) (FIG. 10A). DO 11.10 cells were then pretreated for 24 hours with 0, 10 ng/mL, 100 ng/mL, 1 μg/mL, 10 μg/mL, or 50 μg/mL MANF before exposure to 100 nM dexamethasone to investigate a protective effect for MANF. […] These are key functional data.

Experiment [4] concerns MANF expression. The note with it: male C57BL/6 B cells, B cell activation (CD40 at 65 nM); cited from earlier work.
For experiment [5], the system named is MANF expression. The note with it: immortalized B cells from 60 human individuals, tunicamycin to induce ER stress vs untreated; cited from earlier work.
In experiment [6] the test system is DO 11.10 cells. Kind of experiment: MANF pretreatment protecting DO 11.10 cells from Ara-C induced cell death. The note with it: 1, 10, 100 ng/mL MANF, 24 hours pretreatment, then 10 μM Ara-C. Type of experiment: cell-based. The source says: FIGS. 11A-B provide an analysis of MANF's ability to protect DO 11.10 cells from cell death caused by the DNA damaging chemotherapeutic drug cytosine arabinoside (Ara-C). […].

In experiment [7] the test system is DO 11.10 cells. Kind of experiment: MANF pretreatment protecting DO 11.10 cells from dexamethasone induced cell death. Type of experiment: cell-based. The note with it: 24 hours pretreatment, then 100 nM dexamethasone. As for the experimental part: FIGS. 10A-B provides an analysis of MANF's ability to protect DO 11.10 cells from cell death caused by the glucocorticoid dexamethasone. […]. DO 11.10 cells were pretreated for 24 hrs with MANF (dose shown; B) and then challenged with 100 nM dexamethasone to induce cell death. *p=0.003; **p=0.019.
as §1

Experiment [8] concerns dopaminergic neurons. As to conditions: cited from earlier work.
In experiment [9] the test system is KLH-specific IgM. Put plainly: KLH-specific IgM ELISA after injection of mice with TNP-KLH/alum with MANF or PBS. Type of experiment: in vivo. As to conditions: 8 week old male mice, i.p. 100 μg TNP-KLH with 5% alum plus 200 μL of 1 μg/μL MANF vs PBS; blood seven days later; p=0.0013. As for the experimental part:
FIG. 5 provides an ELISA analysis of anti-KLH specific IgM titers between mice injected with 2,4,6, Trinitrophenyl hapten conjugated Keyhole Limpet Hemocyanin (TNP-KLH) and either 200 μL of 1 μg/μL MANF (KLH-MANF; right) or phosphate buffered saline (KLH-PBS; left). P=0.0013, Student's t-test.
Based on the expression in the non-germinal cells within the lymph nodes it was speculated that MANF might enhance antibody production and provide for faster and/or higher titers of antibodies following exposure to a novel antigen. To test this hypothesis, 8 week old male mice were injected intraperitoneally with 100 μg of sterile TNP-KLH (2,4,6, Trinitrophenyl hapten conjugated Keyhole Limpet Hemocyanin) with 5% alum in the presence of 200 μL of 1 μg/μL MANF or an equal volume of PBS. Blood was sampled via the submandibular vein seven days later and the KLH-specific IgM analyzed using an enzyme linked immunoassays (ELISA) from Life Diagnostics, Inc. The concentration was calculated from a standard curve. A Student's t-test was used to establish statistical significance (p=0.0013).
(In general: In an ELISA, binding on a coated surface is turned into a signal by an enzyme label.)

For experiment [10], the system named is midbrain dopaminergic neurons. The note with it: primary nigral neuron cell cultures; cited from earlier work.
Setting [11] is: injection of MANF into 6-OHDA treated rat brains.

`Nc1ccn([C@@H]2O[C@H](CO)[C@@H](O)[C@@H]2O)c(=O)n1` [Ara-C, cytosine arabinoside]: the “LD50 (dose that results in 50% cell death)” value in [1] was roughly 5 µM.

On to `O=P1(N(CCCl)CCCl)NCCCO1` (centres unmarked) [cyclophosphamide], for which the MANF expression result in experiment [2] was “highly induced”.

As to `C[C@@H]1C[C@H]2[C@@H]3CCC4=CC(=O)C=C[C@]4(C)[C@@]3(F)[C@@H](O)C[C@]2(C)[C@@]1(O)C(=O)CO` [dexamethasone], in experiment [3], the “LD50 (dose that results in ~50% cell death)” value stood at 24 nM.

With “B-cell activating factor: ligand used for B cell activation in ligand screen”, the MANF expression result in experiment [4] is recorded as “dramatic, but transient, repression”.

As for tunicamycin, in experiment [5], the MANF expression entry is listed as “higher levels of MANF expression”.

B1: MANF: mesencephalic astrocyte-derived neurotrophic factor, an 18 kDa secreted protein; form used in the tests not stated (protein, UniProt P55145 25-182, looked up)
Mesencephalic …: LRPGDCEVCISYLGRFYQDLKDRDVTFSPATIENELIKFCREARGKENRLCYYIGATDDAATKIINEVSKPLAHHIPVEKICEKLKKKDSQICELKYDKQIDLSTVDLKKLRVKELKKILDDWGETCKGCAEKSDYIRKINELMPKYAPKAASARTDL
As for B1, in experiment [6], the “protection against Ara-C induced cell death” value is reported as “dose-dependent protection”. Besides, the “protection against dexamethasone induced cell death” value was “statistically significant, does-dependent protection” in experiment [7] (10 ng/mL MANF, p=0.003); “statistically significant, does-dependent protection” in experiment [7] (100 ng/mL MANF, p=0.019); “No statistically significant effects” in experiment [7] (higher doses of MANF (1, 10, 50 μg/mL)). For the same molecule, the “behavioral symptoms associated with the disorder” value in experiment [8] (setting [11]) is recorded as “reduced the behavioral symptoms”. In experiment [8] (setting [11]), the “loss of dopaminergic neurons” value is recorded as “statistically significant reduction”. In addition, the “dopaminergic neuron survival and motor defects” value in experiment [8] (up to 4 weeks after 6-OHDA treatment) is “improve dopaminergic neuron survival and correct motor defects”. Besides, the “levels of anti-KLH IgM antibodies” value in [9] was “significantly increased”. Besides, the “protection of dopaminergic neurons from death” value in [10] is “protected these midbrain dopaminergic neurons from death”.

Values taken from patent US20220111042A1, “MANF as a Regulator of Immune System Function” (University of Massachusetts, priority 2014, published 2022).
